Here are results for 1 molecule from patent US20240182592A1 (CHIA TAI TIANQING PHARMACEUTICAL GROUP, published 2024).

Assay [1] has as its target T1, human BCMA on cells (human, UniProt Q02223 1-184).
T1 construct: whole, on cells; also called CHO-hBCMA cells; U266 cells
T1 sequence (looked up): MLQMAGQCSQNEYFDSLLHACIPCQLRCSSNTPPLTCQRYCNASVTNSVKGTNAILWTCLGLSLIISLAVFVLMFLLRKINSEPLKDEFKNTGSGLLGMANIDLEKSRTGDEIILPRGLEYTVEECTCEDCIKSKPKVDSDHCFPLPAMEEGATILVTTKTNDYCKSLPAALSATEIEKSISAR
The assay is described as follows: flow cytometry, NCI-H929 cells. The procedure:
(§1) NCI-H929 cells (BCMA+++), MM1S cells (BCMA++), and RPMI-8226 cells (BCMA+) in the logarithmic growth phase were taken, adjusted to a cell density of 5×10⁶-10×10⁶ cells/mL using RPMI medium (Hyclon, catalog No. SH30809.01) containing 2% FBS (fetal bovine serum), respectively, and seeded in a 96-well U-bottom cell culture plate (Costar, catalog No. 3799) at 50 μL per well. The test antibodies at different concentrations were prepared using the medium described above. […] The antibodies at different concentrations were added to the 96-well cell culture plate described above at 50 μL per well, mixed well and incubated at 4° C. for 1 h. The cells were washed with pre-cooled running buffer (MACS, catalog No. 130-091-221), and the supernatant was discarded. Pre-cooled fluorescent labeled goat anti-human IgG antibodies (Jackson, catalog No. 109-116-170) were added, and the cells were resuspended at 100 μL per well, mixed well and incubated at 4° C. for 30 min. After washing, 100 μL of pre-cooled running buffer was added to resuspend the cells. The cells were mixed well and collected while flowing on an Attune™ NxT flow cytometer, and the data was analyzed using Graphpad Prism5 software. FIGS. 7-9 and Table 11 show the binding ability of the anti-BCMA/anti-CD3 multispecific antibodies to NCI-H929 cells (BCMA+++), MM1S cells (BCMA++), and RPMI-8226 cells (BCMA+).

The target of the next assay is T2, human BCMA protein (human, UniProt Q02223 1-54, limits assumed).
T2 construct: also called hBCMA; Antigen BCMA
T2 sequence (looked up): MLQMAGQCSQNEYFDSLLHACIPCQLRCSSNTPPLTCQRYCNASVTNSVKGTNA
The assay is described as follows: SPR (Biacore T200), antibody captured by anti-hIgG, human BCMA as analyte, 1:1 model. On the procedure: (§2) The affinity of the test antibody for human CD3e or human BCMA protein was determined by Biacore T200 (GE) as follows:
(§3) The response signals were detected in real time using Biacore software, and association and dissociation curves were obtained. The buffer used in the experiment was Biacore universal buffer (137 mM NaCl, 2.7 mM KCl, 10 mM Na₂HPO₄.12H₂O, 1.8 mM KH₂PO₄. 0.05% surfactant P-20 (w/v), pH 7.4). […] The flow rate in the flow cell was at 50 μL/min, the association was performed for 240 s, the dissociation was performed for 1400 s, the regeneration was performed using 3 M MgCl (GE) for 60 s, and the baseline was stable. Results were obtained by calculation according to the affinity and kinetics 1:1 binding mode in biacore evaluation software.
(In general: In SPR one partner is held on a chip, and binding of the other changes the refractive index at the surface.)

For assay [2], the target named is T1, human BCMA on cells. The assay is described as follows: cell-based or functional assay.
The target of assay [3] is T1, human BCMA on cells. The assay is described as follows: flow cytometry, MM1S cells. The procedure:
as §1

Assay [4] has as its target T3, human CD3e (Acro, Cat. No. CDE-H5223) (human, UniProt P07766 23-126).
T3 construct: also called human CD3e protein; hCD3e
The assay is described as follows: SPR (Biacore T200), antibody captured by anti-hIgG, human CD3e as analyte, 1:1 model. On the procedure: as §2, §3

Assay [5] has as its target T1, human BCMA on cells. The assay is described as follows: cell-based or functional assay. The source holds these as a separate data set.
The target in assay [6] is T1, human BCMA on cells. The assay is described as follows: cell-based or functional assay. The source holds these as a separate data set.
A further assay concerns the target T4, T cell surface CD3 (human, UniProt P07766 23-207).
T4 construct: whole, on cells; also called CD3^+ T cells
The assay is described as follows: flow cytometry, human CD3+ T cells. On the procedure: Human PBMC cells were sorted for CD3⁺ T cells using CD3 magnetic beads (Miltenyi, catalog No. 130-097-043): the cryopreserved PBMCs were thawed, and washed by centrifugation twice for counting. Running buffer (MACS, catalog No. 130-091-221) was added in a cell-to-buffer ratio of 10⁷:80 μL, CD3 beads were added in a cell-to-bead ratio of 10⁷:20 μL, and the mixture was mixed well and incubated at 4° C. for 15 min. The cells were washed with buffer in a cell-to-buffer ratio of 10⁷:1-2 mL. After centrifugation, the supernatant was discarded, and 500 μL of buffer was added to resuspend the cell pellet. The LS sorting column (Miltenyi, catalog No. 130-042-401) was placed on the MidiMACS Starting Kit (LS) magnetic rack (Miltenyi, catalog No. 130-091-051). After rinsing, the cell suspension was added and washed thrice. The LS sorting column was removed from the magnetic rack and placed on a clean centrifuge tube and 5 mL buffer was added to collect the sorted CD3⁺ T cells. After counting, the CD3⁺ T cells were adjusted to a cell density of 5×10⁶-10×10⁶ cells/mL using RPMI medium (Hyclone, catalog No. SH30809.01) containing 2% FBS (fetal bovine serum) and seeded in a 96-well U-bottom cell culture plate (Costar, catalog No. 3799) at 50 μL per well. The test antibodies at different concentrations were prepared using the medium described above. […] The antibodies at different concentrations were added to the 96-well cell culture plate described above at 50 μL per well, mixed well and incubated at 4° C. for 1 h. The cells were washed with pre-cooled running buffer (MACS, catalog No. 130-091-221), and the supernatant was discarded. Pre-cooled fluorescent labeled goat anti-human IgG antibodies (Jackson, catalog No. 109-116-170) were added, and the cells were resuspended at 100 μL per well, mixed well and incubated at 4° C. for 30 min. After washing, 100 μL of pre-cooled running buffer was added to resuspend the cells.
(In general: A flow cytometer gives signals particle by particle.)

T4 sequence (P07766 23-207): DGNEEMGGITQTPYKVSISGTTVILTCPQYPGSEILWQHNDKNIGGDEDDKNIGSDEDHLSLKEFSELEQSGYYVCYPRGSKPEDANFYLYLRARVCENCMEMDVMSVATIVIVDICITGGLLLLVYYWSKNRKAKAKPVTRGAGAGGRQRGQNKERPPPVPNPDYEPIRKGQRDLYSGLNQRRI
T3 sequence (P07766 23-126 limits assumed): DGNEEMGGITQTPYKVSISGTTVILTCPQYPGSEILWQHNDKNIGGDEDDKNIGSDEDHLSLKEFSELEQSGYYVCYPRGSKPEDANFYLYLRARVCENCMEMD

B1: anti-BCMA/anti-CD3 multispecific antibody BC24 (bispecific antibody, human IgG1, lambda, L234A L235A)
chain: QVQLVESGGGSVQAGGSLRLSCAASGYSSNVACMAWYRQAPGKEREWVATIVADFGTTNYAASVKGRFTISQDNAKNTVYLQMNSLKPEDSAMYYCAATQRGGIDWCDEINYWGQGTLVTVSSGGGGSGGGGSQVQLVESGGGSVQAGGSLRLSCAASGVTFNSACMGWFRQAPGKEREGVARIETGYGGTVYADSVKGRFTISRDNAKNTVYLQMNSLKPEDTAMYYCAAKRSWCTPTWWHELDYNYWGQGTQVTVSSGEPKSSDKTHTCPPCPAPEAAGGPSVFLFPPKPKDTLMISRTPEVTCVVVDVSHEDPEVKFNWYVDGVEVHNAKTKPREEQYNSTYRVVSVLTVLHQDWLNGKEYKCKVSNKALAAPIEKTISKAKGQPREPQVCTLPPSREEMTKNQVSLSCAVKGFYPSDIAVEWESNGQPENNYKTTPPVLDSDGSFFLVSKLTVDKSRWQQGNVFSCSVMHEALHNHYTQKSLSLSPGK
heavy: EVQLVESGGGLVQPGGSLRLSCAASGFTFNTYAMNWVRQAPGKGLEWVARIRSKYNNYATYYADSVKDRFTISRDDSKNTAYLQMNNLKTEDTAMYYCVRHGNFGNSYVSWFAYWGQGTLVTVSSASTKGPSVFPLAPSSKSTSGGTAALGCLVKDYFPEPVTVSWNSGALTSGVHTFPAVLQSSGLYSLSSVVTVPSSSLGTQTYICNVNHKPSNTKVDKKVEPKSCDKTHTCPPCPAPEAAGGPSVFLFPPKPKDTLMISRTPEVTCVVVDVSHEDPEVKFNWYVDGVEVHNAKTKPREEQYNSTYRVVSVLTVLHQDWLNGKEYKCKVSNKALAAPIEKTISKAKGQPREPQVYTLPPCREEMTKNQVSLWCLVKGFYPSDIAVEWESNGQPENNYKTTPPVLDSDGSFFLYSKLTVDKSRWQQGNVFSCSVMHEALHNRFTQKSLSLSPGK
light: ELVVTQEPSLTTSPGGTVTLTCRSSTGAVTTSNYANWVQQKPGQAPRGLIGGTNKRAPGTPARFSGSLLGGKAALTITGVQPEDEAEYYCALWYSNLWVFGGGTKLTVLGQPKANPTVTLFPPSSEELQANKATLVCLISDFYPGAVTVAWKADGSPVKAGVETTKPSKQSNNKYAASSYLSLTPEQWKSHRSYSCQVTHEGSTVEKTVAPTECS
notes: Trivalent: 1A10 VHH and 1A11 VHH in tandem on one Fc polypeptide, anti-CD3 Fab on the other; human IgG1 knobs-into-holes Fc
On to B1, for which, in the assay with human BCMA on cells [1], the EC50 (commonly the concentration giving half of the maximal effect) came out at 1.56 nM and the “Top(MFI)” value was 186000 MFI. For the same molecule, the Kd – broadly, a measure of binding affinity in units of concentration – in the assay with human BCMA protein stood at 0.0627 nM. Further, in the assay with human BCMA on cells [2], the “Lysis EC50, NCI-H929 cells with human PBMCs (E:T 10:1, 24 h, LDH release)” value was found to be 0.0218 nM and the “Maximum lysis rate, NCI-H929 cells with human PBMCs” value stood at 40%. Further, in the assay with human BCMA on cells [3], the midpoint of the response, the EC50, lay at 0.535 nM and the “Top(MFI)” value stood at 107000 MFI. In assay [4], this molecule showed a Kd of 0.286 nM. Also, in the assay with human BCMA on cells [5], the “Lysis EC50, RPMI-8226 cells with human PBMCs (E:T 10:1, 24 h, LDH release)” value came to 0.0113 nM and the “Maximum lysis rate, RPMI-8226 cells with human PBMCs” value is 29%. Also, in the assay with human BCMA on cells [6], the “Lysis EC50, MM1S cells with human PBMCs (E:T 10:1, 24 h, LDH release)” value was 0.00937 nM and the “Maximum lysis rate, MM1S cells with human PBMCs” value was 21%. Besides, in the assay with T cell surface CD3, a half-maximal response (EC50) required 38.3 nM and the “Top(MFI)” value was determined as 163000 MFI.
